Test results taken from the nanobody polyreactivity screen of Harvey et al. (2022).

Test: yeast display, Sf9 membrane polyspecificity reagent, FACS + sequencing; frameworks hold sequencing errors
Summary of the method: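 In a synthetic yeast display library (Saccharomyces cerevisiae BJ5465), nanobody expression was induced with galactose for 36–48 hours. FACS gates were set low and high (top ~1%) using anti-HA fluorescence for expression and streptavidin fluorescence for binding of the Sf9 membrane reagent. Each polyreactivity label is drawn from the gate of origin.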
With “QVQLVESGGGLVQAGGSLRLSCAASGSTFAYYAMGWYRQAPGKERELVAAITRSTGRTYYADSVKGRFTISRDNAKNTVYLQMNSLKPEDTAVYYCAKTYGYRQPGDYWGQGTLVTVSS” the “polyreactivity (PSR sort gate)” value was “high polyreactivity”.
In the case of “QVQLVESGGGLVQAGGSLRLSCAASGSTFAYYAMGWYRQAPGKERELVAASSVSGGRTYYADSVQGRFTISRDNAKNTVYLQMNSLKPEDTAVYYCAARLWRDYYWGQGTQVTVSS”, the “polyreactivity (PSR sort gate)” value is reported as “high polyreactivity”.
In the case of “QVQLVESGGGLVQAGGSLRLSCAASGSTFAYYAMGWYRQAPGKERELVAVISVRGGSTYYADSVKGRFTISRDYAKNTVYLQMNSLKPEDTAVYYCAADTFAGYYYWGQGTQVTVSS”, the “polyreactivity (PSR sort gate)” value is reported as “high polyreactivity”.
With “QVQLVESGGGLVQAGGSLRLSCAASGSTFAYYAMGWYRQAPGKERELVAVISVSGDGTSTYYADSVKGRFTISRDNAKNTVYLQMNSLKPEDSAVYYCAAEQVLVGGHTYSLTYDYWGQGTQVTVSS” the “polyreactivity (PSR sort gate)” value was “low polyreactivity”.
For “QVQLVESGGGLVQAGGSLRLSCAASGSTFAYYAMGWYRQAPGKEREWVAGISGSGGSTYYADSVKGRFTISRDYAKNTVYLHMNSLKPEDTAVYYCAVVQRSKRTYPWYDYWGQGSQVTVSS”, the “polyreactivity (PSR sort gate)” value was “low polyreactivity”.
For “QVQLVESGGGLVQAGGSLRLSCAASGSTFAYYTMGWYRQAPGKERELVAAISSRGGSTYYADSVKGRFTISRDNAKNTVYLQMNSLKPEDTAVYYCAKSPRVAHYTSAYDYWGQGTQVTVSS”, the “polyreactivity (PSR sort gate)” value was “high polyreactivity”.
In the case of “QVQLVESGGGLVQAGGSLRLSCAASGSTFAYYVMGWYRQAPGKERELVAAISRGGRTYYADSVKGSFTISRDNAKNTVYLQMNSLKPEDTSVYYCNKVYVVYSRSKGFYYTYLKYEYWGQGTQVTVSS”, the “polyreactivity (PSR sort gate)” value is reported as “low polyreactivity”.
For “QVQLVESGGGLVQAGGSLRLSCAASGSTFAYYVMGWYRQAPGKERELVAAITSSGGRTYYADSVKGRFTISRDNAKNTVYLQMNSLKPEDTAVYYWAKVSQRRVDNSDYDYWGQGTQVTVSS”, the “polyreactivity (PSR sort gate)” value was “high polyreactivity”.
With “QVQLVESGGGLVQAGGSLRLSCAASGSTFCENDMGWYRQAPGKERELVAAISWTGGRTYYADSVKGRFTISRDNAKNTVYLQMNSLKAEDTAVYYFAAEWEYYGFDYWGQGTQVTVSS” the “polyreactivity (PSR sort gate)” value was “low polyreactivity”.
For “QVQLVESGGGLVQAGGSLRLSCAASGSTFCYYDMGWYRQAPGKERELVATISSGGGTNYAASVKGRFTISRDNAKNTVYLQMNSLKPEDTAVYYCAAQYVIRITFYATYWEDYWGQGTQVTVSS”, the “polyreactivity (PSR sort gate)” value was “low polyreactivity”.
For “QVQLVESGGGLVQAGGSLRLSCAASGSTFDANAMGWYRQEPGKERELVATISDGGSTNYADSVKGRFTISRDNAKNTVYLQMNSLKPEDTAVYYCAADFSPWGGWYMSLDYWGQGTQVTVSS”, the “polyreactivity (PSR sort gate)” value was “low polyreactivity”.
For “QVQLVESGGGLVQAGGSLRLSCAASGSTFDANDMGWYRQAPGKERELVAAITIGGGSTYYADSVKGRFTISRDNAKNTVYLQMNSLKPEDTAVYYCAKDDHTGVHTYPVDYWGQGTQVTVSS”, the “polyreactivity (PSR sort gate)” value was “low polyreactivity”.
In the case of “QVQLVESGGGLVQAGGSLRLSCAASGSTFDDYAMGWYRQAPGKERELVAAISSAGTTYYADSVKGRFTISRDNAKNTVYLQMNSLKPEDTAVYYCNTVLYPVWYVNFSLRYRYDYYWGQGTQVTVSS”, the “polyreactivity (PSR sort gate)” value is reported as “high polyreactivity”.
In the case of “QVQLVESGGGLVQAGGSLRLSCAASGSTFDDYTMGWYRQAPGKERELLAAISSDSSTNYADSVKGRFTISRDNAKNTVYLQMNSLKPEDTAVYYCATRSRTTKIVRWPGMYYWGQGTQVTVSS”, the “polyreactivity (PSR sort gate)” value is reported as “high polyreactivity”.
With “QVQLVESGGGLVQAGGSLRLSCAASGSTFDGNAMGWYRPAPGKERELVAAITWRDGSTSYADSVKGRFTISRDNAKNTVYLQMNSLKPEDTAVYYCNADPGYLDEEYWGQGTQVTVSS” the “polyreactivity (PSR sort gate)” value was “low polyreactivity”.
With “QVQLVESGGGLVQAGGSLRLSCAASGSTFDGNAMGWYRQAPGKERELVAAITSGGSTNYADSVKGRFTILRDNAKNTVYLQMNSLKPEDTAVYYCAAGWLYARWHSYVGYYYWGQGTQVTVSS” the “polyreactivity (PSR sort gate)” value was “low polyreactivity”.
For “QVQLVESGGGLVQAGGSLRLSCAASGSTFDINAMGWYRQAPGKERHLVAAITYDTTTTYYADSVKGRFTISRDNAKNTVYLLMNSLKPEDTAVYYCAVEGLLGDTTYVQGYPYWYNYWGQGTQVTVSS”, the “polyreactivity (PSR sort gate)” value was “low polyreactivity”.
With “QVQLVESGGGLVQAGGSLRLSCAASGSTFDIYAMGWYRQAPGKERELVAAITGSSGSTYYADSVKGRFTISRDNAKNTVYLQMNSLKPEDTAVYYCAADIVRVSTVPSLVYSYYWGQGTQVTVSS” the “polyreactivity (PSR sort gate)” value was “low polyreactivity”.
In the case of “QVQLVESGGGLVQAGGSLRLSCAASGSTFDIYVMGWYRQAPGKESELVAAISRVGNTSYADSVKGRFTISRDNAKNTVNLQMNSLKPEDTAVYYCAADAPSWYDRQYDYWGQCTQVTVSS”, the “polyreactivity (PSR sort gate)” value is reported as “low polyreactivity”.
For “QVQLVESGGGLVQAGGSLRLSCAASGSTFDPKAMGWYRQAPGKERELVAAISYTGGRTYYADSVKGRFTISRDNAKNTVYLQMNSLKPEDTAVYYCAVLVVGSTTQDEPYFSGVEHDYWGQGTQVTVSS”, the “polyreactivity (PSR sort gate)” value was “low polyreactivity”.
With “QVQLVESGGGLVQAGGSLRLSCAASGSTFDPYAMGWYRQAPGKERELVAGISASGGSTYADSVKGRFTISRDNAKNTVYLQMNSLKPEDTACYYCAADTYLIRGPPDEEYWGQGTQVTVSS” the “polyreactivity (PSR sort gate)” value was “low polyreactivity”.
In the case of “QVQLVESGGGLVQAGGSLRLSCAASGSTFDQYGMGWYRQAPGKDRELVAAITSVGGTNYADSVKGRFTISRDNAKKTVYLQMNSLKPEDTAVYYCARRYPKNHKAPGRMDYWGQGTQVTVSS”, the “polyreactivity (PSR sort gate)” value is reported as “low polyreactivity”.
In the case of “QVQLVESGGGLVQAGGSLRLSCAASGSTFDRNVMGWYRQAPGKERELVAAISRVSSTNYADSVKGRFTISRDNAKNTVYLQMNSLKPEDTAVYYCAVDRAGSIMNYWGQGTQVTVSS”, the “polyreactivity (PSR sort gate)” value is reported as “low polyreactivity”.
For “QVQLVESGGGLVQAGGSLRLSCAASGSTFDRYAMAWYRQAPGKERELVAAISKNGGRTYYADSVKGRFTISRDNAKNTVYLQMNSLKPEDTAVYYCAKDIIKYDYDYWGQGTQVTVSS”, the “polyreactivity (PSR sort gate)” value was “low polyreactivity”.
For “QVQLVESGGGLVQAGGSLRLSCAASGSTFDRYAMGWYRQAPGKERELVAAISCSGGRTYYADSVKGRFTISRDNEKNTVYLQMNSLKPEDTAVYYCATVSRSSLAYIKYDYWGQGTQVTVSA”, the “polyreactivity (PSR sort gate)” value was “high polyreactivity”.
For “QVQLVESGGGLVQAGGSLRLSCAASGSTFDRYDMVWYRQAPGKETELVAAITRRGGSTYYADSVKGRFTFSRDNAKNTVYLQMNSLQPEDTAVYYCNAKHFAYSVAHPYLRYGYDYWGQGTHVTVSS”, the “polyreactivity (PSR sort gate)” value was “low polyreactivity”.
With “QVQLVESGGGLVQAGGSLRLSCAASGSTFDSNAMGWYRQAPGKERELVAGITIGGSTNYADSVKGRFTISRDNAKNTVFLQMNSLKPEDTAVYYCNVVKYVYIYSYWEYYYWGQGTQVTVSS” the “polyreactivity (PSR sort gate)” value was “low polyreactivity”.
For “QVQLVESGGGLVQAGGSLRLSCAASGSTFDSYAMGWYRQAPGKEGELVAAITGGGDTNYADSVKGRFTISRDNAKNTVYLQMNSLKPEDTAVYYCAAYQRRGNYQMDLWGQGTQVTVSS”, the “polyreactivity (PSR sort gate)” value was “low polyreactivity”.
For “QVQLVESGGGLVQAGGSLRLSCAASGSTFDSYAMGWYRQAPGKERELVAAITNGGSTYYADSVKGRFTISRDNAKNTVYLQMNSLKPEDTEVYYCATDDYLLDYLYDYWGQGTQVTVSS”, the “polyreactivity (PSR sort gate)” value was “low polyreactivity”.
With “QVQLVESGGGLVQAGGSLRLSCAASGSTFDTYAMGWYRQAPGKERELGAAISWSVDSTYYADSVKGRFTISRDNAKNTVYLQMNSLKPEDTAVYYCATVGYGYDYWGQGTQVTVSS” the “polyreactivity (PSR sort gate)” value was “high polyreactivity”.
In the case of “QVQLVESGGGLVQAGGSLRLSCAASGSTFDTYAMGWYRQAPGKERELVAAISYRGGNTYYADSVKGRFTISRDNAKNTVYLQMNSLKPEDTAVYYCAASYFDPASIPVAFNYWGQGTQVTVSS”, the “polyreactivity (PSR sort gate)” value is reported as “low polyreactivity”.
In the case of “QVQLVESGGGLVQAGGSLRLSCAASGSTFDVNAMGSYRQAPGKERELVAAISWNSGSTYFADSVKGRFTISRDNAKNTVYLQMNRLKPEDTAVYYCAATYGTGRRSKYGYWGQGTQVTVSS”, the “polyreactivity (PSR sort gate)” value is reported as “high polyreactivity”.
In the case of “QVQLVESGGGLVQAGGSLRLSCAASGSTFDVNAMGWYRQAPGKERELVAAITQSGGSTFYADSVKGRFTISRDNAKNTVYLQMNSLKPEDTAVYYWGQGTQVTVSS”, the “polyreactivity (PSR sort gate)” value is reported as “low polyreactivity”.
With “QVQLVESGGGLVQAGGSLRLSCAASGSTFDVYAMGWYRQAPGKERELVATISTSGGDTYYADSVKGRFTISRDNAKNTVYLQMNSLNPEDTAVYYCNVSASYYSPDPKVLVRYDYWGQGTQVTVSS” the “polyreactivity (PSR sort gate)” value was “low polyreactivity”.
For “QVQLVESGGGLVQAGGSLRLSCAASGSTFDVYAMGWYRQAPGKERELVAVINTSGTRTYYADSVKGRFTISRDNAKNTVYLQMNSLKPEDTAVYYCNAGGHLEMNYWGLGTQVTVSS”, the “polyreactivity (PSR sort gate)” value was “low polyreactivity”.
With “QVQLVESGGGLVQAGGSLRLSCAASGSTFDVYAMGWYRQAPGKERELVAVINTSGTRTYYADSVKGRFTISRDNAKNTVYLQMNSLKPEDTAVYYCNAGGHLEMNYWGQGTEVTVSS” the “polyreactivity (PSR sort gate)” value was “low polyreactivity”.
With “QVQLVESGGGLVQAGGSLRLSCAASGSTFDVYAMGWYRQGPGKERELVATISNYGGDTYYADSVKGRFTISRDNAENTVYLQMNTLKPEDTAVYYCNAYLRFVDVSLDYQLLLEHDFWGQGTQVTVSS” the “polyreactivity (PSR sort gate)” value was “low polyreactivity”.
For “QVQLVESGGGLVQAGGSLRLSCAASGSTFDVYTMGWYRQAPGKERELVATISGDDGSTYYADSVKGRFTISRDNAKNTVYLQMNSLKPEDTAVYYCAADYGGFPNYYSTGDYWGQGTQVTVSS”, the “polyreactivity (PSR sort gate)” value was “low polyreactivity”.
For “QVQLVESGGGLVQAGGSLRLSCAASGSTFDWYAMGWYRQAPGKERELVATIRYRGGTSYADSVKGRFTISRDNEKNTVYLQMNSLKPEDTAVYYCNAQLYIFDDSYNYWGFDYWGQGTQVTVSS”, the “polyreactivity (PSR sort gate)” value was “high polyreactivity”.
In the case of “QVQLVESGGGLVQAGGSLRLSCAASGSTFDWYVMGWDRQAPGKERELVADITWSGDSTYYADSVKGRFTISRDNAKNTVYLQMNSLKPEDTAVYYCAADAYTLFYFYVYEYNYWGQGTQVTVSS”, the “polyreactivity (PSR sort gate)” value is reported as “high polyreactivity”.
In the case of “QVQLVESGGGLVQAGGSLRLSCAASGSTFDYNAMGGYRQAPGKERELVAAISRGGNTYYADSVKGRFTISRDNAKNTVYLQMNSLKPEDTAVYYCAKDSYGSYRFVRNRQKAYGYWGQGTQVTVSS”, the “polyreactivity (PSR sort gate)” value is reported as “low polyreactivity”.
For “QVQLVESGGGLVQAGGSLRLSCAASGSTFDYNAMGWYRQAPGKERELVAAISSTGGSTYYADSVKGRFTISRDNAKNTVYLQMNSLKPEDTAVYFCARYYAIVSGYYDDGYWGQGTQVTVSS”, the “polyreactivity (PSR sort gate)” value was “high polyreactivity”.
In the case of “QVQLVESGGGLVQAGGSLRLSCAASGSTFDYNAMGWYRQAPGKERELVATITSTGRTNYADSVKGRFTISRDNAKNTVYLQMNSLKPEDTAVYYCAKRTFFGKARGGPTYRLYYWGQGTQVTVSS”, the “polyreactivity (PSR sort gate)” value is reported as “high polyreactivity”.
